According to the nanobody polyreactivity screen of Harvey et al. (2022):

Assay: yeast display, Sf9 membrane polyspecificity reagent, FACS + sequencing; frameworks hold sequencing errors
Outline: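 Nanobodies came from a synthetic yeast display library in Saccharomyces cerevisiae BJ5465, induced with galactose for 36–48 hours and stained for 1 hour at 4 °C with 10% biotinylated, detergent-solubilized Sf9 membrane reagent. Cells were enriched on streptavidin microbeads and then FACS-sorted, with low and high (top ~1%) gates set on anti-HA fluorescence for expression and streptavidin fluorescence for reagent binding. Each polyreactivity label reflects the gate a clone came from. Genes were amplified by colony PCR, sequenced by MiSeq 2 × 250 and filtered by CDR length.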

QVQLQESGGGLVQAGGSLRLSCAASGYISYFVGMGWYRQAPGKEREFVASIADGSNTYYADSVKGRFTISRDNAKNTVYLQRNSLKPEDTAVYYCAVEDSWTYRFDYWGQGTQVTVSS
polyreactivity (PSR sort gate): high polyreactivity

QVHLVESGGCLVQAGGSLRLSGAASGGNFSTYAMGWYRQAPGKERELVSSITERGGSTYYADSVKGRFTISRDNAKNTFDLQMNSLKPEDTAVYYCAADWDASWWLVPTSSYDYWGEGTQVTVSS
polyreactivity (PSR sort gate): low polyreactivity

QVQLVESGGGLVQAGGSLRLSCAASGSTFYTNAMGWYRQAPGKERELVASISSGGRTYYADSVKGRFTISRDNAKNTVYLQMNSLKPEDTAVYYCAKRAVLARGDYWGQGTQVTVSS
polyreactivity (PSR sort gate): low polyreactivity

QVQLVESGGGLVQAGGSLRLSCAASGSIFDLYAMGWYRQAPGKERELVAGISYSGGSTYYADSVKGRFTISRDNAKNTVYLQMNSLKPEDTAVYYCAVDLGYRLGRFDYWGQGTQVTVSS
polyreactivity (PSR sort gate): low polyreactivity

QVQLVESGGGLVQAGGSLRLSCAASGSIFNYNAMGWYRPAPGKERELVAALNSGGSTNYADSVKGRFTISRDNAKNTVYLQMNSLKPEDPAVYYCAADNYSQGVPYDYWGQGTQVTVSS
polyreactivity (PSR sort gate): low polyreactivity

LVQQVESGGGLVQAVGTLRISCAASGQILYSYAMGWYRQAPGKERELVAAITGGVSTNYADSVKGRFTISRDNAKNTVYLQMNSLKPEDTAVYYCNVELWEYSYIDEYWGQGTQLTVSS
polyreactivity (PSR sort gate): low polyreactivity

QVQLEESGGGLVQAGGSLRLSCAASGRIFSGYAMGWYRQAPGIERELVAAIDSVGDTYYADSVKVRFTISRDNAKNTVYLQMNSLKPEDTAVYYCAAERTVRMVLSPTDEMDYWGQGTQVNVSS
polyreactivity (PSR sort gate): low polyreactivity

QVQLVESGGGLVQAGGSLRLSCAASGRTLYYNTMGWYRPAPGKERELVSSIRWDGGRTYYADSVKGRFTISRDNAKNTVYLQMNSLKPEDTAVYYCAKDGCYYYGTYAYDGCFDYWGQGTQVTVSS
polyreactivity (PSR sort gate): low polyreactivity

QVQLVESGGGLVQAGGSLRLSCAASGSIFYHYAMGWYRQAPGKDRELVADITQSGGTTDYADSVKGRFTISRYNAKNTVYLQMNSLKPEDTAVYYCAADGDTTSPTYYIFWSGEFDYWGQGNQVTVSS
polyreactivity (PSR sort gate): low polyreactivity

QVQLVESGGGLVQAGGSLRLSCAASGITFVWNAMGWYRQAPGKERELVATISRGGVRTYYADSVKGRFTISRDNAKNTVYLQMNSLKPEDTAVYYCNVDETGVLVAYSFDYWGQGTQVTVSS
polyreactivity (PSR sort gate): low polyreactivity

QVQLVESGGGLVQAGGSLRLSCAASGLNFWLNAMGWYRQAPGKERELVAAISRGGSTNYADSVKGRFTNSRDNAKNTVYLQMNSLKPEDTAVYYCAAGSRRAACYDYSYPYGYWGQGSQVTVSS
polyreactivity (PSR sort gate): high polyreactivity

QVQLVESGGGLVQAGGSLRLSCAASGSTFDKYAMGWYRQAPGKERELVAAITWGGGSTYYADSVKGRFTISRDNAKNTVYLQMNSLKPEDTAVYYCAAEQGSSVLYDSWGQGTQVTVSS
polyreactivity (PSR sort gate): low polyreactivity

QVQLVESGGGLVQEGGSLRLSCAASGFTFTSNAMGWYRQAPGKERELVAAITYSGGITYYADSVKGRFTISRDNAKNTVYLQMNSLKPEDTAVYYCAADSTPYVLSGNYDYWGQGTQVTVSS
polyreactivity (PSR sort gate): low polyreactivity

QVHLVESGGGLVQAGGSLRLSCAASGSIFHKNAMGWYRQAPGKERELVAAITSGGTTYYADSVKGRFTISRDNAKNTVYLLMNSLKPEDTAVYYCNAAKFLYRHGFLSAGDMYYWGQGTQVTVSS
polyreactivity (PSR sort gate): high polyreactivity

QVQLVESGGGLVQAGGSLRLSCAASGSIFTWYAMGWYRQAPGKERELVAAITRGGSTYADSVKGRFTISRDNAKYTVYLQMNSLKPEDTAVYYCNAVYGVYDFNYWGQGTQVTVSS
polyreactivity (PSR sort gate): low polyreactivity

QVQLVESGGGLVQAGGSLRLSCAASGNIRNYGLGWYRQAPGKERELVAAITVSGSRTYYADSVKGRFTISRDNAKNTVYLQMNSLKPEDTAVSYCAARGYNTLTRYDYWGQGTQVTVTS
polyreactivity (PSR sort gate): high polyreactivity

QVQLVESGGGLVQAGGSLRLSCAASGSIFLYYAMGWYIQATGKERELVATITSGGRTSYADSVKGRFTISRDNAKNTVYLKMNSLKPEDTAVYYCAGRYGWFTPYDYWGQGTQVTVSS
polyreactivity (PSR sort gate): high polyreactivity

QVQLVESGGGLVQAGGSLRLSCAASGRTSEIYTMGWYRQAPGKERELVASINTNYADSVKGRFTISRDNAKNTVYLQMNSLKPEDTAVYYCNADDTIEFNYWGQGTQVTVSS
polyreactivity (PSR sort gate): low polyreactivity

QVQIVESGGGLVQAGGSLRLSCAASGRIFRNTMGWYIQAPGKERDLVAAITDTTDSTYYADSVKGRFTISRDNAKNTVYLQMNSLKPEDSAVYYCAARYGGYVNRPYYYWGHGTQVTVSS
polyreactivity (PSR sort gate): low polyreactivity

QVQLVESGGGLVQAGGSLRLSCAASGFIFRYNTMGWYRQPPGKERELVAAISVSGARTYYADSVKGRFTLSRDNAKNTVYLQMNSLKPEDTAVYYCNRRYPLYSRYNNDYWGQGTQVTVSS
polyreactivity (PSR sort gate): high polyreactivity

QVQLVESGGGLVQEGGSLRLSCAASGSTFSSYAMGWYRQAPGKERELVAAISWSGGSTYYADSVKGRFTISRDNAKNTVYLQMISLKPEDTAVYYCAAYTYSFRANHDYWGQGTQVTVSS
polyreactivity (PSR sort gate): high polyreactivity

QVQIEESRVGLVQAGGSLRLSCAASGSIIYENMGWYRPAPGKERELVASISWSGTSTYADSVKGRFTMTRDNAKTTVYLLMNSLKPEDTAVYSCAAYPYPFYQSKYLGIGYGFWGQGTQVTVSS
polyreactivity (PSR sort gate): high polyreactivity

QVQLVESGGGLVQAGGSLRLSCAASGFIFGLNAMGWYRQAPGKERELVAVIAFSGGSTYYADSVKGRFTISRDNAKNTVYLQMNSLKPEDTAVYYCNAVTRYPHPREYDYWGQGTQVTVSS
polyreactivity (PSR sort gate): high polyreactivity

QVQLVESGGGLVQAGGSLRLSCAASGGTFSRNAMGWYRQAPGKERELVAAINSSGVSTSYADSVKGRFTISRDNAKNTVYLQMNSLKPEDTAVYYCADETSSAEVDYWGQGTQVTVSS
polyreactivity (PSR sort gate): low polyreactivity

QVQLVESGAGLVQAGGSLRLSCAASGFTFAKYAMGWYRQAPGKERELVATIRRSDDNTYYADSVKGRFTISRDNAKNTVYLQMNSLKPEDTAVYYCATGYYALYSRKPYKYNYWGQGTQVTVSS
polyreactivity (PSR sort gate): high polyreactivity

QVQLVESGGGLVQAGGSLRLSCAASGGIFPGYAMGWYRQAPGKETELVAAISGSGSSTYYADSVKGRFTISRDHAKNTVYVQMNSLKPEDTAVYYCNVVTRVLPTRFDYWGQGTQVTVSS
polyreactivity (PSR sort gate): high polyreactivity

QVQLVESGGGLVQAGGSLRLSCAASGKIFNNYVMGWYRQAPGKVRELVARIDSGGSTNYADSVKGRFTISRDNAKNTVYLQMNSLKPEDTAVYYCAARKLSSYAYDYWGQGTQVTVSS
polyreactivity (PSR sort gate): low polyreactivity

QVQLVESGGGLVQAGGSLRLSCAASGSTFDPNDMGWYRPAPGKERQLVASITSRGGSTYYADSVKGRFTISRDNAKNTVYLQMNSLKPEDTAVYYCAAVGGATYSWNGYSWYPWHNYWGQGTQVTVSS
polyreactivity (PSR sort gate): low polyreactivity

QVQLVESGGGLVQAGGSLRLSCAASGFTFFFNAMGWYRQAPGKERELVASIRSDGDTNYADSVKGRFTISRDNAKNTVYLQMNSLKPEDTAVYYCAKVWYVFRYVSTEYDYWGQGTQVTVSS
polyreactivity (PSR sort gate): high polyreactivity

QDQLVESGGGLVQAGGSLRLSCAASGRIFGYYVMGWYRQAPGKERELVAAISGSGGSTYYADSVKGRFTISRDNAKNTVYLQMNSLKPEDTAVYYCNKRATRSRRRGYWGQGTQVTVSS
polyreactivity (PSR sort gate): low polyreactivity

QVQLVDSGGGLVQAGGSLRLSCADSGSIFPANVMGWYRQAPGKERELVAAISRGGSTYYADSVKGRFTISRDNAKNTVYLQMNSLKPEDTAVYYCAVAFRGSYRPAYYYWGQGTQVTVSS
polyreactivity (PSR sort gate): high polyreactivity

QVQLVESGGGLVQAGGSLRLSCAASGSTFDYYAMGWYRQAPGKERELVAAISGSGGSTYYADSVKGRITISRDNAKNTVYLQMNSLKPEDTAVYYCATVRSRLFGQYYYWGQGTQVTVSS
polyreactivity (PSR sort gate): high polyreactivity
